Biological target: SARS-CoV-2 full length spike protein, wild type, expressed on the surface of CHO cells (SARS-CoV-2, UniProt P0DTC2 14-1273)

Binder | median fluorescence fold over isotype control [fold over isotype]
antibody 527 (antibody, V domains shown) VH: QLQLQESGPGLVKPSETLSLTCTVSGGSISSSSYYWGWIRQPPGKGLEWIGSIYYSGSTYYNPSLKSRVTISVDTSKNQFSLKLSSVTAADTAMYYCASHVVVIASSYWCFDLWGRGTLVTVSS VL: QSALTQPASVSGSPGQSITISCTGTSSDVGGYNYVSWYQQHPGKAPKLMIYDVSNRPSGVSNRFSGSKSGNTASLTISGLQAEDEADYYCSSYTSISTWVFGGGTKLTVL | 10.4
antibody 533 (antibody, V domains shown) VH: GVQLVESGGVVVQPGGSLRLSCAASGFSFDDYTMHWVRQAPGKGLEWVSLVSWDGGTTYYTDSVKGRFTISRDNSKNSLYLQMNSLRTEDTALYFCAKDSGRIVPAATFDYWGQGTLVTVSS VL: DIQMTQSSSSLSASVGDRVTITCRASQDISNYLAWFQQKPGKAPKSLIYAASSLQSGVPSKFSGSGSGTDFTLTISSLQPEDFATYYCQQYYTYPLTFGGGTKVEIK | 4.31
antibody 536 (antibody, V domains shown) VH: QVQLVESGGGVVQPGRSLRLSCAASGFTFSSYVMHWVRQAPGKGLEWVALISYDGSNKYYADSVKGRFTISRDNSKNTLYLQMNSLRAEDTAVYYCARGGHIRVGRYFDWLISYFDYWGQGTLVTVSS VL: not shown | 2.36
antibody 537 (antibody, V domains shown) VH: QVQLQQWGAGLLKPSETLSLTCAVYGGSFSGYYWSWIRQPPGKGLEWIGEINHSGSTNYNPSLKSRVTISVDTSKNQFSLKLSSVTAADTAVYYCARGLYYDMGGGFDYWGQGTLVTVSS VL: not shown | 4.42
antibody 541 (antibody, V domains shown) VH: QVQLVQSGAEVKKPGASVKVSCKASGYTFTSYYVHWVRQAPGQSLEWMGVISPSTGSTTYAQNFQGRVTMTRDTSTTTVYMELSSLRSEDTAVYYCARDDYYDSTRYFDLWGRGTLVTVSS VL: not shown | 1.1
antibody 543 (antibody, V domains shown) VH: EVQLVESGGGLVQPGRSLRLSCAASGFTFHDYAMHWVRQAPGKGLEWVSGISWNSGSIGYADSVKGRFTISRDNAKNSLYLQMNSLRAEDTALYYCAKDTFGSSSWYRGDSYYYYGMDVWGQGTTVTVSS VL: QSALTQPASVSGSPGQSITISCTGTSSDVGGYNYVSWYQQHPGKAPKLMIYEVSNRPSGVSNRFSGSKSGNTASLTISGLQAEDEADYYCSSYTSSSTQRYVVFGGGTKLTVL | 13.3
antibody 546 (antibody, V domains shown) VH: QVQLVESGGGVVQPGRSLRLSCAASGFTFSSYGMHWVRQAPGKGLEWVAVIWYDGSNKYYADSVKGRFTISRDNSKNTLYLQMNSLRAEDTAVYYCARNCGGDCVAGDGFDYWGQGTLVTVSS VL: DIQMTQSPSSLSASVGDRVTITCRASQSISSYLNWYQQKPGKAPNLLIYAASSLQSGVPSRFSGSGSGTDFTLTISSLQPEDFATYYCQQSYSALTWTFGQGTKVEIK | 19.3

Biological target: SARS-CoV-2 full length spike protein (wild type) (SARS-CoV-2, UniProt P0DTC2 14-1273)

Binder | median fluorescence intensity, fold over isotype control [fold over isotype]
antibody 263 (antibody, V domains shown) VH: EVQLVQSGAEVKKPGATVKISCKVSGYTFTDYYMHWVQQAPGKGLEWMGLVDPEDGETIYAEKFQGRVTITADTSTDTAYMELSSLRSDDTAVYYCTTDLAFTIFGGRRGFDPWGQGTLVTVSS VL: DIQLTQSPSFLSASVGDRVTITCRASQGISSYLAWYQQKPGKAPKLLIYAASTLQSGVPSRFSGSGSGTEFTLTISSLQPEDFATYYCQQLNSYDFGQGTRLEIK | 22.5
antibody 264 (antibody, V domains shown) VH: QVHLVESGGGVVQPGRSLRLSCAASGFTLTSYAMHWVRQAPGKGLEWVALISYDGSVKKYAESVKGRITVSGDNSRNTLHLQINTLRADDTAVYYCVRGGVSGPNSFDLWGQGTMVTVSS VL: DVVMTQSPLSLPVTLGQPASISCRSSQSLEYSDGNTYVNWFQQRPGQSPRRLIYQVSNRASGVPDRFSGSGSGTDFTLQISRVEAEDVGIYYCMQGTHWPVTFGQGTKVEIK | 10.3
antibody 316 (antibody, V domains shown) VH: QVHLVESGGGVVQPGRSLRLSCAASGFTLTAYAMHWVRQAPGKRLEWVALISYDGSVKKYADSVKGRITVSGDTSTNTLHLQMNSLRADDTAVYYCVRGGVSGPNSFDLWGQGTMVTVSS VL: DVVMTQSPLSLPVTLGQPASMSCRSSQSLEYSDGNTYVNWFHQRPGQSPRRLIYKVSYRDSGVPDRFSGSGSGTDFTLQISRVEAEDVGIYYCMQGTHWPVTFGQGTKVEIK | 10.7
antibody 265 (antibody, V domains shown) VH: EVQLVQSGAEVKKPGATVKVSCKFSGDTFSHYYIHWVQQAPGKGLEWMGLVDPQDGESEYAQKFQGKVTITADTSIDTSYLEVTSLRFDDTAFYFCATRGMSGAFDRWGQGTLVTVSS VL: DIVMTQSPDSLAVSLGERATINCKSSQSILSTSNNKNYLAWYQQKPGQPPKLLIYWASTRESGVPDRFSGGGSGTDFTLTISSLQAEDVAVYYCQQYYRTAYTTPIYTFGQGTKLEIK | 21.4
antibody 266 (antibody, V domains shown) VH: QVQLVESGGGVVQPGRSLRLSCAASGFNLSNYAMHWVRQPSGKGLEWVSLISYDGSIKYYTDSVKGRFTVSGDNSKNTLFLQMNSLRPDDSALYYCVRGGVSGPNSFDMWGQGTTVTVSS VL: DVVMTQSPLSLPVTLGQPASISCRSSQSLVYSDGNTYVNWFQQRPGQSPRRLIYQVSIRASGVPDRFSGSGSGTDFALKISRVEAEDVGVYYCMQGTHWPVTFGQGTKVEIK | 10.3
antibody 303 (antibody, V domains shown) VH: QVQLVESGGGVVQPGRSLRLSCAASGFNLSSYAMHWVRQASGKGLEWVSLISYDGSIKYYADSVKGRFTVSGDNSKNMLFLQMNSLRADDSALYYCVRGGVSGPNAFDIWGQGTTVTVSS VL: not shown | 9.59
antibody 273 (antibody, V domains shown) VH: QVQLVQSGAEVKKPGASVKVSCKVSGYTLTELSMHWVRQAPGKGLEWMGGFDPEDGETIYAQKFQGRVTMTEDTSTDTAYMELSSLRSEDTAVYYCATAPGYYDSSAPQPINWFDPWGQGTLVTVSS VL: QSALTQPASVSGSPGQSITISCTGTSSDVGSYNLVSWYQQHPGKAPKLMIYEVSKRPSGVSNRFSGSKSGNTASLTISGLQAEDEADYYCCSYAGSSTLVFGGGTKLTVL | 16.9
antibody 276 (antibody, V domains shown) VH: QVQLQESGPGLVKPSQTLSLTCTVSGDSISSGGYYWSWIRQHPGKGLEWIGYIYYSGSAYYNPSLKSRVTISLDTSKNQFSLKLSSVTAADTAVYYCARDSVAGFSIFDYWGQGTLVTVSS VL: SSELTQDPAVSVALGQTVRITCQGDSLRSYYASWYQQKPGQAPVRVIYGKNNRPSGIPDRFSGSSSGNTASLTITGAQAEDEADYYCNSWDSSGNHVVFGGGTKLTVL | 9.24
antibody 281 (antibody, V domains shown) VH: not shown VL: QSALTQPASVSGSPGQSITISCTGTSSDVGSYNLVSWYQQHPGKAPKLMIYEVSKRPSGVSNRFSGSKSGNTASLTISGLQAEDEADYYCCSYAGSSTHVVFGGGTKLTVL | 24.3
antibody 288 (antibody, V domains shown) VH: EVQLVESGGGLVQPGGSLRLSCAASGFTFSSYDMHWVRQATGKGLEWVSAIGTAGDTYYPGSVKGRFTISRENAKNSLYLQMNSLRAGDTAVYYCARGANRDYDILTGYYSYYYYGMDVWGQGTTVTVSS VL: not shown | 24.3
antibody 294 (antibody, V domains shown) VH: EVQLVESGGGLVQPGGSLRLSCAASGFTVSSNYMNWVRQAPGKGLEWVSVIYSGGSTYYADSVKGRFTISRDNSKNTLYLQMNSLRAEDTAVYYCARDLGPSGMDVWGQGTTVTVSS VL: DIQMTQSPSSVSASVGDRVTITCRASQGISSWLAWYQQKPGKAPKLLIYAASSLQSGVPSRFSGSGSGTDFTLTISSLQPEDFATYYCQQANSFPLFGGGTKVEIK | 22.2
antibody 295 (antibody, V domains shown) VH: QVQLQESGPGLVKPSQTLSLTCTVSGGSISSSDYYWSWIRQPPGKGLEWIGYIYYSGSTYYNPSLKSRVTISVDTSKNQFSLKLSSVTAADTAVYYCARVVGYCSSTSCYVDYWGQGTLVTVSS VL: EIVLTQSPATLSLSPGERVTLSCRASQSVSSYLAWYQQKPGQAPRLLIYDASNRATGIPARFSGSGSGTDFTLTISSLEPEDFAVYYCQQRSNWPPGLTFGGGTKVEIK | 9.67
antibody 300 (antibody, V domains shown) VH: QVQLVESGGGVVQPGRSLTLSCAASGFTFSSYAMHWVRQAPGKGLEWVALISYDGNNKYYADSVKGRFTFSRDNSKNTLYLQMNSLRAEDTAVYYCARTNSGSYRTAFDYWGQGTLVTVSS VL: DIQMTQSPSTLSASVGDRVTITCRASQSISIWLAWYQQKPGKAPKLLIYKASSLESGVPSRFSGSGSGTEFTLTISSLQPDDFATYYCQQYNSLWTFGQGTKVEIK | 9.71
antibody 301 (antibody, V domains shown) VH: QVQLVQSGAEVKKPGASVKVSCKVSGYTLTELSMHWVRQAPGKGLEWMGGFDPEDGETIYAQKFQGRVTMTEDTSTDTAYMELSSLRSEDTAVYYCATAFCGGDCYPPDALDIWGQGTMVTVSS VL: DIQMTQSPSSVSASVGDRVTITCRASQGISSWLAWYQQKPGKAPKLLIYAASSLQSGVPSRFSGSGSGTDFTLTISSLQPEDFATYYCQQANSFPLTFGGGTKVEIK | 29.7
antibody 317 (antibody, V domains shown) VH: QVQLVQSGAEVKKPGASVKVSCKVSGYTLTELSMHWVRQAPGKGLEWMGGFDPEDGETIYAQKFQGRVTMTEDTSTDTAYMELSSLRSEDTAVYYCASSPAAAGTSQYYYYYGMDVWGQGTTVTVSS VL: not shown | 11.2
antibody 260 (antibody, V domains shown) VH: EVQLVESGGGLVQPGRSLRLSCAASGFTFDYYAMHWVRQAPGKGLEWVSGISWNSGTIGYADSVKGRFTISRDNAKNSLYLQMNSLRAEDTALYYCAKDSRPSGRYYYGMDVWGQGTTVTVSS VL: not shown | 10.3
